Literature values as cited in US6063755A, “Intestinal trefoil proteins” (The General Hospital Corporation, priority 1995, dated 2000).

Tests used:
[1] = laboratory animal; parenteral as well as oral administration
[2] = laboratory animal; parenteral as well as oral administration; remark: listed apart in the source

B1: PSP: porcine pancreatic peptide, pancreatic spasmolytic peptide; thought to include two trefoils (protein)
chain: EKPAACRCSRQDPKNRVNCGFPGITSDQCFTSGCCFDSQVPGVPWCFKPLPAQESEECVMEV
- gastrointestinal motility [1]: inhibit
- gastric acid secretion [2]: inhibit
